Columns and labels:
[1] = substrate: CC(C)C[C@H](NC(=O)[C@H](C)NC(=O)CNC(=O)[C@H](Cc1ccc(OP(=O)(O)O)cc1)NC(=O)[C@H](CC(=O)O)NC(=O)[C@@H]1CCCN1C(=O)[C@H](CCC(=O)O)NC(=O)[C@H](C)NC(=O)[C@@H](N)[C@@H](C)O)C(=O)N[C@@H](Cc1ccc(O)cc1)C(=O)N[C@@H](CCC(=O)O)C(=O)O; test: purified protein, by the assay type; conditions: other: 0.01 µM protein, 25 mM citrate pH 6.0, 15 min at 25°C, malachite green
From the text: (§1) The phosphorylated as well as non-phosphorylated peptides were obtained from GL Bioscience, China. The peptides were >95% pure and were used after a single round of desalting using a Sephadex G25 column (GE Healthcare). The concentration of the peptide samples for biochemical studies was ascertained by UV absorption at 268 nm for the pY residue.
(§2) Phosphatase activity with the phosphotyrosine peptides was ascertained by the malachite green reaction as described for PTPs previously [14]. Briefly, the reaction mixture comprised of 0.01 µM protein incubated with increasing concentrations of different peptides in 25 mM citrate buffer pH 6.0, 100 mM NaCl and 2 mM DTT for 15 min at 25°C. The reaction was stopped by the addition of the Biomol Green reagent (Enzo Life Sciences) and the colour developed after 20 min was quantified at 650 nm. For all the assays, kinetic constants for the steady state catalysis were obtained by fitting the reaction curves to the Michaelis-Menten equation using the nonlinear regression module of Sigma plot software (Systat Software, Inc.).

[2] = substrate: CC[C@H](C)[C@H](NC(=O)[C@H](CC(=O)O)NC(=O)[C@H](CCCNC(=N)N)NC(=O)[C@@H](N)[C@@H](C)O)C(=O)N[C@@H](Cc1ccc(OP(=O)(O)O)cc1)C(=O)N[C@@H](CCC(=O)O)C(=O)N[C@H](C(=O)N[C@@H](CC(=O)O)C(=O)N[C@@H](Cc1ccc(O)cc1)C(=O)N[C@@H](Cc1ccc(O)cc1)C(=O)N[C@@H](CCCNC(=N)N)C(=O)N[C@@H](CCCCN)C(=O)O)[C@@H](C)O; test: purified protein, by the assay type; conditions: other: 0.01 µM protein, 25 mM citrate pH 6.0, 15 min at 25°C, malachite green
From the text: as §1, §2

Protein | Km [1] | Vmax [1] | kcat [1] | kcat/Km [1] | Km [2] | Vmax [2] | kcat [2] | kcat/Km [2]
PTP99A D1 D2 (Drosophila melanogaster) (protein) DEIRAAVPVNEFAKHVASLHADGDIGFSREYEAIQNECISDDLPCEHSQHPENKRKNRYLNITAYDHSRVHLHPTPGQKKNLDYINANFIDGYQKGHAFIGTQGPLPDTFDCFWRMIWEQRVAIIVMITNLVERGRRKCDMYWPKDGVETYGVIQVKLIEEEVMSTYTVRTLQIKHLKLKKKKQCNTEKLVYQYHYTNWPDHGTPDHPLPVLNFVKKSSAANPAEAGPIVVHCSAGVGRTGTYIVLDAMLKQIQQKNIVNVFGFLRHIRAQRNFLVQTEEQYIFLHDALVEAIASGETNLMAEQVEELKNCTPYLEQQYKNIIQFQPKDIHIASAMKQVNSIKNRGAIFPIEGSRVHLTPKPGEDGSDYINASWLHGFRRLRDFIVTQHPMAHTIKDFWQMVWDHNAQTVVLLSSLDDINFAQFWPDEATPIESDHYRVKFLNKTNKSDYVSRDFVIQSIQDDYELTVKMLHCPSWPEMSNPNSIYDFIVDVHERCNDYRNGPIVIVDRYGGAQACTFCAISSLAIEMEYCSTANVYQYAKLYHNKRPGVWTSSEDIRVIYNILSFLPGNLNLLKRTALRTEFEDVTTATPDLYSKICSNG | 112.42 ± 10.14 µM | 17.1 µmol/min/mg | 21.1 ± 0.82 s⁻¹ | 188000 ± 12900 M⁻¹ s⁻¹ | 35.75 ± 2.08 µM | 46 µmol/min/mg | 56.9 ± 1.03 s⁻¹ | 1.638e+06 ± 7400 M⁻¹ s⁻¹
PTP99A D1 (Drosophila melanogaster) (protein) DEIRAAVPVNEFAKHVASLHADGDIGFSREYEAIQNECISDDLPCEHSQHPENKRKNRYLNITAYDHSRVHLHPTPGQKKNLDYINANFIDGYQKGHAFIGTQGPLPDTFDCFWRMIWEQRVAIIVMITNLVERGRRKCDMYWPKDGVETYGVIQVKLIEEEVMSTYTVRTLQIKHLKLKKKKQCNTEKLVYQYHYTNWPDHGTPDHPLPVLNFVKKSSAANPAEAGPIVVHCSAGVGRTGTYIVLDAMLKQIQQKNIVNVFGFLRHIRAQRNFLVQTEEQYIFLHDALVEAIASGETNLMAEQVEE | 309.04 ± 33.32 µM | 1.26 µmol/min/mg | 0.84 ± 0.04 s⁻¹ | 2718 ± 15 M⁻¹ s⁻¹ | 1017 ± 161.84 µM | 2.37 µmol/min/mg | 1.58 ± 0.11 s⁻¹ | 1550 ± 22 M⁻¹ s⁻¹

Reference: publication PMC3172300, “Modulation of Catalytic Activity in Multi-Domain Protein Tyrosine Phosphatases” (PLoS ONE, 2011)
